B1: C-terminal octapeptide of Hsp90 (TSRMEEVD) [not stated] / TPR domain of AtToc64 with a C-terminal hexa-histidine tag (AtToc64_TPR-H6) [Arabidopsis thaliana] (parent complex)
chain 1: TSRMEEVD
chain 2: AEIAKEKGNQAFKEKLWQKAIGLYSEAIKLSDNNATYYSNRAAAYLELGGFLQAEEDCTKAITLDKKNVKAYLRRGTAREMLGDCKGAIEDFRYALVLEPNNKRASLSAERLRKFQ
B2: C-terminal octapeptide of Hsp70 (GPTIEEVD) [not stated] / TPR domain of AtToc64 with a C-terminal hexa-histidine tag (AtToc64_TPR-H6) [Arabidopsis thaliana] (parent complex)
chain 1: GPTIEEVD
chain 2: B1 chain 2

Variants of: B1
Assay: ITC; parent: 2.18e+05 nM

| Variant | Kd |
| --- | --- |
| chain 1 M4A | 1080 µM |
| chain 1 D8A | 1400 µM |
| chain 1 E6A | 1900 µM |

Variants of: B2
Assay: ITC; parent: 2.3e+05 nM

| Variant | Kd |
| --- | --- |
| chain 1 I4A | 4600 µM |

From article PMC3877065, “Ligand Recognition by the TPR Domain of the Import Factor Toc64 from Arabidopsis thaliana” (PLoS ONE, 2013)
